Non-standard residues stand in square brackets, D forms with d. No end group written: not given here. sY = N[C@@H](Cc1ccc(OS(=O)(=O)O)cc1)C(=O)O
T1: human CCR6 with C-terminal His tag, on CHO-hCCR6 (isoform1) or U937-CCR6 cells (human, UniProt P51684 1-374)
T1 construct: Expressed from pKANTEX-hCCR6 (isoform1) in CHO/DG44 cells (CHO-hCCR6) and in U937 cells (U937-CCR6); also called hCCR6-His-tag
T1 sequence: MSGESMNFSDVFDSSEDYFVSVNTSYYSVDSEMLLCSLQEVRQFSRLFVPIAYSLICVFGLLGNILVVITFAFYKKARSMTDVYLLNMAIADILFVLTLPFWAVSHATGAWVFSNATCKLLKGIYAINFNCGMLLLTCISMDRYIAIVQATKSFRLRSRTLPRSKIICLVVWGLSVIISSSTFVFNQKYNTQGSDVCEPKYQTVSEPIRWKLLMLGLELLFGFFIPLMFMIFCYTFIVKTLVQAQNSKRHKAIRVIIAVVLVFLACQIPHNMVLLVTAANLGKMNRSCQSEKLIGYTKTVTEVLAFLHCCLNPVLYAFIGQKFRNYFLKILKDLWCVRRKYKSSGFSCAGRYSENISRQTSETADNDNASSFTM

T2: cynomolgus monkey CCR6 (isoform 1, 177Val type) with C-terminal His tag, on CHO-cynomolgus CCR6 cells (cynomolgus monkey, UniProt P51684 1-374 (human entry))
T2 construct: also called mfCCR6
T2 chain: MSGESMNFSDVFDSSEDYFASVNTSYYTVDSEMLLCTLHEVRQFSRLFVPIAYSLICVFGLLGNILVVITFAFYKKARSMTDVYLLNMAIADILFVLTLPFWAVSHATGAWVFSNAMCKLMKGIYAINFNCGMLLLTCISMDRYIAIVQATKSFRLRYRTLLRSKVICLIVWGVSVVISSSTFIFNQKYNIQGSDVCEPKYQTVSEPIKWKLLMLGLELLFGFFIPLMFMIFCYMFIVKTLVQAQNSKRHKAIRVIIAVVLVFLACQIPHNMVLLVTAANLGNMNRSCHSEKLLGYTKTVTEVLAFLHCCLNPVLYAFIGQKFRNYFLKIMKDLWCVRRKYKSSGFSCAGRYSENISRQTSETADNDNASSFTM

T3: synthetic peptide CCR6-1 (1st to 17th amino acids of human CCR6) (human, also: 11 PEG units at the C-terminal side)
T3 construct: also called CCR6-1 peptide
T3 peptide: MSGESMNFSDVFDSSEDC

T4: synthetic peptide CCR6-4 (30th to 46th amino acids of human CCR6) (human, also: 11 PEG units at the N-terminal side)
T4 construct: also called CCR6-4 peptide
T4 peptide: DSEMLLSSLQEVRQFSRC

T5: synthetic peptide CCR6-3 (20th to 34th amino acids of human CCR6) (human, Cys residue introduced at the N-terminal or C-terminal side)
T5 construct: also called CCR6-3 peptide
T5 peptide: CVSVNTSYYSVDSEML

T6: synthetic peptide CCR6-2S (9th to 23rd amino acids of human CCR6, Tyr18-sulfation) (human)
T6 construct: also called CCR6-2S peptide; P2: CCR6-2S(B)
T6 peptide: CSDVFDSSED[sY]FVSVN

T7: synthetic peptide CCR6-2 (9th to 23rd amino acids of human CCR6) (human, not fully specified)
T7 construct: Not sulfated; also called CCR6-2 peptide; P3: CCR6-2(B)
T7 peptide: CSDVFDSSEDYFVSVN


Columns and labels:
[1] = target: T1, human CCR6 with C-terminal His tag, on …; experiment: flow cytometry on CHO-hCCR6 cells
[2] = target: T2, cynomolgus monkey CCR6 (isoform 1, …); experiment: flow cytometry on CHO-cynomolgus CCR6 cells
[3] = target: T3, synthetic peptide CCR6-1 (1st to 17th …); experiment: binding ELISA on coated peptide
[4] = target: T8, human CCR6 N-terminal extracellular domain Fc fusion protein NthCCR6-IgG4Fc (human, contains a sulfated Tyr residue; N-linked sugar chains); experiment: SPR, Biacore T100; NthCCR6-IgG4Fc captured on anti-human IgG CM5 chip, antibody injected
T8 construct: Made in CHO/DG44 cells; also called NthCCR6-Fc; NtCCR6-IgG4Fc
T8 sequence (chain, as listed by the source limits assumed): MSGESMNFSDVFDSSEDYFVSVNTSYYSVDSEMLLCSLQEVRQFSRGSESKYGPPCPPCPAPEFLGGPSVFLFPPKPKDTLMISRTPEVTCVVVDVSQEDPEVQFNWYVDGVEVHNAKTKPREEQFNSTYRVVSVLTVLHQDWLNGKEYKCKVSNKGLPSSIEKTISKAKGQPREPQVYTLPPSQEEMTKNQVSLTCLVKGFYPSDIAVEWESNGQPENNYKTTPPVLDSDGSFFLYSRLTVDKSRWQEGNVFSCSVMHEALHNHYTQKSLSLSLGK

[5] = target: T4, synthetic peptide CCR6-4 (30th to 46th …); experiment: binding ELISA on coated peptide
[6] = target: T5, synthetic peptide CCR6-3 (20th to 34th …); experiment: binding ELISA on coated peptide
[7] = target: T1, human CCR6 with C-terminal His tag, on …; experiment: flow cytometry on CHO-hCCR6 cells, 0.0001 to 10 μg/mL antibody
[8] = target: T2, cynomolgus monkey CCR6 (isoform 1, …); experiment: flow cytometry on CHO-cynomolgus CCR6 cells, 0.0001 to 10 μg/mL antibody
[9] = target: T6, synthetic peptide CCR6-2S (9th to 23rd …); experiment: binding ELISA on coated peptide
[10] = target: T7, synthetic peptide CCR6-2 (9th to 23rd …); experiment: binding ELISA on coated peptide
[11] = target: T6, synthetic peptide CCR6-2S (9th to 23rd …); experiment: binding ELISA on coated peptide, 10 μg/mL antibody
[12] = target: T7, synthetic peptide CCR6-2 (9th to 23rd …); experiment: binding ELISA on coated peptide, 10 μg/mL antibody
[13] = target: T3, synthetic peptide CCR6-1 (1st to 17th …); experiment: binding ELISA on coated peptide, 10 μg/mL antibody

| binding result [1] | binding result [2] | binding result [3] | Kd [4] [nM] | binding result [5] | binding result [6] | binding result [7] | binding result [8] | binding result [9] | binding result [10] | binding result [11] | binding result [12] | binding result [13] | Binder |
| --- | --- | --- | --- | --- | --- | --- | --- | --- | --- | --- | --- | --- | --- |
| binds | binds | no binding |  |  |  |  |  |  |  |  |  |  | anti-human CCR6 chimeric antibody KM4592 chimera (antibody, human IgG1, V domains shown) VH: DVQLVESGGGLVQPGGSRKLSCAASGFTFSSFGMHWVRQAPEKGLEWVAYISTGSGSIYYADTVKGRFTISRDNPKNTLFLQMTSLRSEDTAIYYCLKGGDGYYVAAWFAYWGQGTLVTVSA VL: DIVLTQAAPSVSVTPGESVSISCRSSKSLLHTNDNTYLYWFLQRPGQSPQLLIYRMSNLASGVPDRFSGSGSGTAFTLRISRVEAEDVGVYYCMQHLEYPLTFGAGTKLELK |
|  |  | no binding (tested: 10 μg/mL) | 0.38 | no binding (tested: 10 μg/mL) | no binding (tested: 10 μg/mL) | binds | binds |  |  |  |  |  | anti-human CCR6 mouse monoclonal antibody KM4592 (antibody, V domains shown) VH: DVQLVESGGGLVQPGGSRKLSCAASGFTFSSFGMHWVRQAPEKGLEWVAYISTGSGSIYYADTVKGRFTISRDNPKNTLFLQMTSLRSEDTAIYYCLKGGDGYYVAAWFAYWGQGTLVTVSA VL: DIVLTQAAPSVSVTPGESVSISCRSSKSLLHTNDNTYLYWFLQRPGQSPQLLIYRMSNLASGVPDRFSGSGSGTAFTLRISRVEAEDVGVYYCMQHLEYPLTFGAGTKLELK |
| binds | binds | binds |  |  |  |  |  | binds | binds |  |  |  | anti-human CCR6 chimeric antibody KM4705 chimera (antibody, human IgG1, V domains shown) VH: EVQLVETGGGLVQPKGSLKLSCAASGFSFKTNAMNWVRQAPGKGLEWVARIRSKINNYATYYADSVKDRFTISRDDSQSMLYLQMNNLKTEDTAMYYCVSDHYGYGAVDYWGQGTSVTVSS VL: DIQMNQSPSSLSASLGDTITITCRASQNINIWLSWYQQKPGSIPKLLIYKASNLHTGVSSRFSGSGYGTDFTLTISSLQPEDIATYYCLQGRSYPLTFGGGTNLEIK |
|  |  |  | 6.52 | no binding (tested: 10 μg/mL) | no binding (tested: 10 μg/mL) | binds | binds |  |  | binds | binds | binds | anti-human CCR6 mouse monoclonal antibody KM4705 (antibody, mouse IgG2b, V domains shown) VH: EVQLVETGGGLVQPKGSLKLSCAASGFSFKTNAMNWVRQAPGKGLEWVARIRSKINNYATYYADSVKDRFTISRDDSQSMLYLQMNNLKTEDTAMYYCVSDHYGYGAVDYWGQGTSVTVSS VL: DIQMNQSPSSLSASLGDTITITCRASQNINIWLSWYQQKPGSIPKLLIYKASNLHTGVSSRFSGSGYGTDFTLTISSLQPEDIATYYCLQGRSYPLTFGGGTNLEIK |
| binds | binds | no binding |  |  |  |  |  |  |  |  |  |  | anti-human CCR6 chimeric antibody KM4703 chimera (antibody, human IgG1, V domains shown) VH: QVQMKETGPGLVQPTQTLSLTCTVSGFSLTSSRVHWVRQPPGKGLEWMGVIYYDGKTDYNATLKSRLSISRDTSKSQVFLKINSLQTDDTAMYYCAGGVIMDAWGQGASVTVSP VL: DVLMTQIPVSLPVSLGGQVAISCRSSQSLVHTDGNTYLHWYLQKPGQSPQLLIYRVSNRFSGVPDRFSGSGSGTDFTLKISRVEPEDLGVYYCSQRTYFPLTFGSGTKLEIK |
|  |  | no binding (tested: 10 μg/mL) | 0.67 | no binding (tested: 10 μg/mL) | no binding (tested: 10 μg/mL) | binds | binds |  |  |  |  |  | anti-human CCR6 rat monoclonal antibody KM4704 (antibody, rat IgG2b, V domains shown) VH: EVQLQESGPGLVKPSQSLSLTCSVTGYSITSNYWGWIRKFPGNKMEWMGYTSSSGSTSYNPYLKSRISITRDTSKNQFFLKLNSVTTEDTATYYCTGGYVMDAWGQGASVTVSS VL: DVLMTQTPVSLPVSLGGQVSISCRSSQSLVHSDGNTYLHWYLQKPGQSPQLLIYRVSNRFSGVPDRFSGSGSGTDFTLKISRVEPEDLGVYYCLQRTYVPWTFGGGTKLDLK |
|  |  | no binding (tested: 10 μg/mL) | 1.15 | no binding (tested: 10 μg/mL) | no binding (tested: 10 μg/mL) | binds | binds |  |  |  |  |  | anti-human CCR6 rat monoclonal antibody KM4703 (antibody, rat IgG2b, V domains shown) VH: QVQMKETGPGLVQPTQTLSLTCTVSGFSLTSSRVHWVRQPPGKGLEWMGVIYYDGKTDYNATLKSRLSISRDTSKSQVFLKINSLQTDDTAMYYCAGGVIMDAWGQGASVTVSP VL: DVLMTQIPVSLPVSLGGQVAISCRSSQSLVHTDGNTYLHWYLQKPGQSPQLLIYRVSNRFSGVPDRFSGSGSGTDFTLKISRVEPEDLGVYYCSQRTYFPLTFGSGTKLEIK |
| binds | binds | no binding |  |  |  |  |  |  |  |  |  |  | anti-human CCR6 chimeric antibody KM4704 chimera (antibody, human IgG1, V domains shown) VH: EVQLQESGPGLVKPSQSLSLTCSVTGYSITSNYWGWIRKFPGNKMEWMGYTSSSGSTSYNPYLKSRISITRDTSKNQFFLKLNSVTTEDTATYYCTGGYVMDAWGQGASVTVSS VL: DVLMTQTPVSLPVSLGGQVSISCRSSQSLVHSDGNTYLHWYLQKPGQSPQLLIYRVSNRFSGVPDRFSGSGSGTDFTLKISRVEPEDLGVYYCLQRTYVPWTFGGGTKLDLK |

Source: patent WO2013005649A1 (dated 2013)
